Experimental findings from patent US20260176306A1 are described below.

Assay [1] deals with H7 hemagglutinin of A/Shanghai/4664T/2013 H7N9 on pseudo virus (Influenza A virus A/Shanghai/4664T/2013 H7N9). The experiment in a line: cell-based or functional assay.
Assay [2] concerns the target H7 hemagglutinin of A/Hong Kong/125/2017 H7N9 on pseudo virus (Influenza A virus A/Hong Kong/125/2017 H7N9). The experiment in a line: cell-based or functional assay.

Bounds are passed on as bounds.

B1: H7.HK4 (antibody, V domains shown)
VH: QVQLQESGPGLVKPSETLSLTCTVSGGSVRSASYAWSWIRQPPGKGLEWIGDIYYSGTTNYNPSLKSRVTLSVDTAKNRFSLRLRSVTAADTAVYHCARERYYYGSSGDFDYWGQGTLVTVSS
VL: DIQMTQSPSSLSASVGDRVTITCRASQGIRNYLAWFQQKPGQAPKSLIFAASSLHTGVPSRFSGSGSGTDFTLTISSLQPEDFATYYCQHYNSYPPTFGQGTKLEIK
B1: in assay [1], the neutralization, H7N9 2013 pseudo virus, MDCK cells, luciferase is greater than 10 µg/mL.

B2: H7.HK1 (antibody, V domains shown)
VH: QVQLQESGPGLVKPSETLSLTCSVSGGSINSYYWTWIRQPPGKGLEWVGYIYHSGSTSYNPSLKSRITISVAPSKNHFSLELTSMTAADTAVYYCARLGGHGDYGSDYWGQGTLVTVSS
VL: DIVMTQSPVSLPVTPGEPASISCNSSQSLLHSNGYAHLDWYLQKPGQSPKLMIYLGLNRAFGVPDRFSGSGSGTDFTLKISRVEAEDVGVYYCMQALQTPFTFGPGTRVDIK
For B2, the neutralization IC50, H7N9 2017 pseudo virus, MDCK cells, luciferase in assay [2] was found to be 0.03 µg/mL.

B3: H7.HK2 (antibody, V domains shown)
VH: QVQLQGSGPGLLRPSETLSLTCSVSGVSINSYYWSWVRQPPGKALEWIGYIYYSGNTNYNPSLESRVTISVDRSKNQFSLKMTSVTAADTARYFCARQGIFGDYGSDYWGPGTLVTVSS
VL: DIVMTQSPLSLPVTPGEPASISCRSNQSLQHSNGYVHLDWYRQKPGQSPHLLIYLGFNRASGVPDRFSGGGSGTDFTLKISRVEAEDVGVYYCMQGLQTPFTFGPGTTVDLK
As to B3, the neutralization IC50, H7N9 2017 pseudo virus, MDCK cells, luciferase in assay [2] came out at 0.03 µg/mL.
